Patent US20110150870A1

Key:
human Fc-NKG2D (human) [1] = molecular target: human Fc-NKG2D (human) (UniProt P26718); assay: SPR (BIAcore 2000), human Fc-NKG2D immobilized on chip; bivalent IgG
human Fc-NKG2D (human) [2] = molecular target: human Fc-NKG2D (human) (UniProt P26718); assay: SPR (BIAcore 2000), human Fc-NKG2D immobilized on chip; bivalent binding (virtual affinity, avidity)
[3] = molecular target: human NKG2D, cell surface (human) (UniProt P26718); assay: cell-based or functional assay
human NKG2D, cell surface (human), sequence (P26718 whole entry): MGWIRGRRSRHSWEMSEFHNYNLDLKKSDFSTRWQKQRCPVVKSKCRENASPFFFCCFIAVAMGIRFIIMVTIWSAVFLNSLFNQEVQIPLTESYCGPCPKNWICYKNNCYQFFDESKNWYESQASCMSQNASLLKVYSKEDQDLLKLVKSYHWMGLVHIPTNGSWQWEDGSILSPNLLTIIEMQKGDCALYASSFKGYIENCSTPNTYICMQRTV

human Fc-NKG2D (human), sequence (P26718 78-216 limits assumed): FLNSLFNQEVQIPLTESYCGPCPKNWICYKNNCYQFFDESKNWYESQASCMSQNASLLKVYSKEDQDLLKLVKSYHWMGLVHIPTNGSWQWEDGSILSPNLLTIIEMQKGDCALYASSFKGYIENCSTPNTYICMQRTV

mouse anti-human NKG2D mAb 149810 (antibody)
koff (human Fc-NKG2D (human) [1]): 5.1e-05 s⁻¹
kon (human Fc-NKG2D (human) [1]): 140000 M⁻¹ s⁻¹
Kd (human Fc-NKG2D (human) [2]): 0.36 nM
percentage of degranulated NK cells (CD56+ CD107a/CD107b+) among total NK cells (CD56+), immobilized antibody, Donor 1 [3]: 13.6%
percentage of degranulated NK cells (CD56+ CD107a/CD107b+) among total NK cells (CD56+), immobilized antibody, Donor 2 [3]: 16.3%
percentage of degranulated NK cells (CD56+ CD107a/CD107b+) among total NK cells (CD56+), immobilized antibody, Donor 3 [3]: 24.3%
percentage of degranulated NK cells (CD56+ CD107a/CD107b+) among total NK cells (CD56+), immobilized antibody, Donor 4 [3]: 8.4%
